Assay results taken from publication PMC12421856 (mBio, 2025).

B1: pT1679 Fab (Fab, V domains shown)
VH: QVQLVQSGAEVKKPGSSVKVSCRASGGTFSSYAISWVRQAPGQGLEWMGTIIPVFGAPDYAQKFQGRVTITADESTSTAYMEVRSLRSEDTAVYYCARDASPYYYDRSGYPRWAEDLHHWGQGTMVTVSS
VL: QSVLTQPPSVSGAPGQRVTISCTGSSSNIGAGYDVHWYQQLPGTAPKLLIYGNSNRPSGVPDRFSGSKSGTSGSLAISGLQPEDEADYYCQSYDSSLSGSIFGGGTKLTVL
notes: also called Fab fragment of pT1679; source: Drosophila S2 cells, purified (Strep-Tactin XT, SEC)
B2: pT1679 Fab (Fab, V domains shown)
VH: B1 VH
VL: B1 VL
notes: source: Drosophila S2 cells, purified (Strep-Tactin XT, SEC)

How the values were obtained:
Settings in all cases: both partners purified
[1] = target: trimeric SARS-CoV-2 S ectodomain (insect cell-expressed) (SARS-CoV-2 Wuhan-Hu-1 (MN908947), UniProt P0DTC2, stabilised); experiment: SPR
[2] = target: trimeric SARS-CoV-2 S ectodomain (insect cell-expressed) (SARS-CoV-2 Wuhan-Hu-1 (MN908947), UniProt P0DTC2, stabilised); experiment: SPR; remark: listed apart in the source
SARS-CoV-2 S HexaPro = SARS-CoV-2 S HexaPro (SARS-CoV-2 Wuhan-Hu-1, HexaPro, stabilised); experiment: cryo-EM structure

| Binder | fold higher affinity than for the RBD [1] | Kd [2] | koff [2] | kon [2] | stoichiometry N (SARS-CoV-2 S HexaPro) |
| --- | --- | --- | --- | --- | --- |
| B1 | ~3 fold | – | – | – | – |
| B2 | – | 0.13 nM | 0.00012 s⁻¹ | 900000 M⁻¹ s⁻¹ | 3 pT1679 molecules per trimeric S protein |
